Test results published in US10400024B2, “Cleavage and exchange of major histocompatibility complex ligands employing azobenzene-containing peptides” (priority 2014, dated 2019).
Entries after “also recorded” stand apart in the source; their conditions may differ.

What was measured:
[1] = format: physicochemical
[2] = biological target: HLA-A*02:01 (Homo sapiens, UniProt P04439, D140Y/D185E/D98H/E176V/E277Q/G131W/G231S/I119V/I121R/I166T/I218V/L300P/L318F/N151K/N90K/P208A/P217A/Q86G/Q94H/R138H/R169H/T345S); settings: cited from earlier work
[3] = system: PBMCs (CD8+ cells); assay: Cell viability assay with sodium dithionite (Annexin V, LIVE/DEAD, flow cytometry); format: cell-based, human; settings: 10 mM, 16 hours exposure; primary and cultured cells
Description: 10^6 freshly isolated PBMCs from healthy volunteers were incubated in 1 ml RPMI 1640 culture media containing HEPES-buffered 1 mM to 100 mM sodium dithionite (pH 7.4) at 37° C., 5% CO2. After 1-hour or 16-hour incubation, the cells were immediately assessed for cell viability or rested overnight in fresh media (for 1-hour treatment only). The cells were harvested, washed with PBS twice and stained with cell viability LIVE/DEAD® fixable near-IR stain (Molecular Probes®). The cells were then washed again with PBS and stained with anti-human CD8 (Clone RPA-T8; BioLegend) Brilliant Violet 421™ antibodies for 15 minutes. Thereafter, the cells were washed once with PBS and once with 1× Annexin V binding buffer (10 mM HEPES, pH 7.4; 140 mM NaCl; 2.5 mM CaCl2) prior to incubation with Annexin V FITC (eBioscience) for 10 minutes. The stained cells were immediately analyzed on BD LSRII flow cytometer and data were processed using FlowJo (Tree Star).

Molecule	known binder class to HLA-A*02:01 [2]	also measured
SIIPSGPLK [Peptide 10]	–	epitope modification after oxidative conditions ([1]; 0.3 mM sodium periodate, RT, 2 hours): cleaved the N-terminal Ser; also recorded: N-terminal serine of 10 was cleaved; epitope modification in PBS ([1]; PBS control incubation): unmodified
SLENFRAYV	intermediate-	–
ALQLLLEV	intermediate-	–
NMLSTVLGV	high-affinity	–
VMLRWGVLA	intermediate-	–
O=S([O-])S(=O)[O-].[Na+].[Na+] [dithionite, sodium dithionite]	–	apoptosis or cell death of cells exposed to buffered dithionite [3]: little sign of apoptosis or cell death
